Test results as given in the supplement of paper PMC6757056.
± gives the standard deviation of the averaged measurements.

B1: library; a variant is named by its letters at N, in order (parent)
chain: GCUGUCACCGGUGCUUGGUACGUUAUAUUCAGCCGGUCUGAUGAGUCUNNNNNNAGACGAAACAGC

Columns and labels:
(6R,S)-folinic acid [1] = variants of: B1; assay: normalized RNA/DNA level without ligand (relative to sTRSVctl = 100) (log10 (% of sTRSVctl)); HEK293T overexpressing SLC46A1; higher = less ribozyme self-cleavage, higher mRNA level; details: without (6R,S)-folinic acid; ligand present: no
Procedure, shortened: (§1)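 Ribozyme switch library plasmids linked to reporters were introduced into HEK293T cells at 4 µg per 6-well well, with ligand, if any, added 1 h before. Total RNA was extracted with EDTA 72 h later, reverse-transcribed, amplified, barcoded and sequenced. RNA level was computed from RNA over DNA reads relative to a spiked-in non-cleaving sequence or the top sequences, then scaled and log-transformed. The top set was 25 sequences, values were ×100 and log10, and the cutoff was ≥100 DNA reads.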

(6R,S)-folinic acid [2] = variants of: B1; assay: normalized RNA/DNA level with ligand (relative to sTRSVctl = 100) (log10 (% of sTRSVctl)); HEK293T overexpressing SLC46A1; ligand concentration (+) RNA-Seq: 6 mM; higher = less ribozyme self-cleavage, higher mRNA level; details: with (6R,S)-folinic acid; ligand present: yes
Procedure, shortened: as §1

Row | Variant | normalized RNA/DNA level without ligand (log10) ((6R,S)-folinic acid [1]) | normalized RNA/DNA level with ligand (log10) ((6R,S)-folinic acid [2])
1 | GCAUGU | 1.983 ± 0.0026 | 2.02 ± 0.055
2 | GCAUCA | 2.023 ± 0.013 | 2.03 ± 0.022
3 | GCAUCU | 2.054 ± 0.0071 | 2.04 ± 0.058
4 | GCAUCG | 2.01 ± 0.029 | 2.061 ± 0.011
5 | GCAUCC | 2.059 ± 0.0098 | 2.048 ± 0.0088
6 | ACACAC | 2.019 ± 0.0045 | 2.01 ± 0.058
7 | ACACAA | 1.968 ± 0.019 | 1.98 ± 0.045
8 | ACACAG | 1.953 ± 0.0027 | 2.01 ± 0.048
9 | UCAGAA | 1.9353 ± 0.0018 | 2.017 ± 0.013
10 | UCAGAG | 1.75 ± 0.026 | 1.98 ± 0.0089
11 | UCAGAC | 2.046 ± 0.0027 | 1.997 ± 0.016
12 | CCCAGA | 2.0467 ± 0.00053 | 2.029 ± 0.012
13 | CCCAGG | 2.042 ± 0.006 | 2.01 ± 0.025
14 | CCCAGU | 2.05 ± 0.038 | 2.034 ± 0.02
15 | CCCAGC | 2.06 ± 0.035 | 2.06 ± 0.068
16 | GCAGGU | 1.934 ± 0.012 | 1.99 ± 0.03
17 | GCAGGC | 1.882 ± 0.0089 | 1.86 ± 0.042
18 | CCACCA | 2.044 ± 0.012 | 2.01 ± 0.041
19 | CCACCG | 2.007 ± 0.018 | 2.01 ± 0.054
20 | CCACCC | 2.038 ± 0.011 | 1.994 ± 0.014
21 | CCACCU | 2.101 ± 0.015 | 2.07 ± 0.033
22 | ACCAGG | 1.9569 ± 0.0006 | 2 ± 0.024
23 | ACCAGU | 2.005 ± 0.0042 | 2.02 ± 0.013
24 | ACCAGC | 2.071 ± 0.0016 | 2.06 ± 0.038

Row | Variant | normalized RNA/DNA level without ligand (log10) ((6R,S)-folinic acid [1]) | normalized RNA/DNA level with ligand (log10) ((6R,S)-folinic acid [2])
25 | ACCAGA | 2.019 ± 0.013 | 2.05 ± 0.033
26 | UCCACC | 2.018 ± 0.017 | 2.03 ± 0.022
27 | UCCACA | 1.985 ± 0.0093 | 2 ± 0.046
28 | UCCACU | 2.041 ± 0.0029 | 2.052 ± 0.014
29 | CCCCAU | 2.031 ± 0.01 | 2.03 ± 0.045
30 | CCCCAA | 2.0237 ± 0.0015 | 1.999 ± 0.0078
31 | CCCCAC | 2.04 ± 0.022 | 2.05 ± 0.037
32 | CCCCAG | 2.004 ± 0.019 | 2.038 ± 0.012
33 | GCAUAC | 1.9845 ± 0.0011 | 2.03 ± 0.033
34 | GCCAUU | 2.041 ± 0.0051 | 2.008 ± 0.015
35 | GCCAUA | 2.016 ± 0.0031 | 2.02 ± 0.052
36 | GCCAUC | 2.02 ± 0.031 | 2 ± 0.032
37 | CCCACG | 2.014 ± 0.0016 | 2.03 ± 0.021
38 | CCCACA | 2.05 ± 0.027 | 2 ± 0.034
39 | CCCACC | 2.022 ± 0.0044 | 1.99 ± 0.021
40 | CCCACU | 2.103 ± 0.016 | 2.08 ± 0.062
41 | UCACUC | 2.07 ± 0.01 | 2.05 ± 0.026
42 | UCACUG | 1.906 ± 0.0057 | 2.015 ± 0.02
43 | UCACUU | 2.021 ± 0.0092 | 2.04 ± 0.018
44 | UCACUA | 1.9969 ± 0.0017 | 2.019 ± 0.0085
45 | UCACCC | 2.05 ± 0.025 | 2.04 ± 0.037
46 | UCACCA | 2.0085 ± 0.0017 | 2.006 ± 0.0035
47 | UCACCU | 2.051 ± 0.0042 | 2.06 ± 0.027
48 | CCAUAC | 1.991 ± 0.012 | 1.96 ± 0.059

Row | Variant | normalized RNA/DNA level without ligand (log10) ((6R,S)-folinic acid [1]) | normalized RNA/DNA level with ligand (log10) ((6R,S)-folinic acid [2])
49 | CCAUAG | 1.922 ± 0.0071 | 1.99 ± 0.02
50 | CCAUAU | 1.961 ± 0.0029 | 1.99 ± 0.032
51 | CCAUAA | 1.98 ± 0.023 | 1.97 ± 0.027
52 | UCAGGC | 2.031 ± 0.003 | 2.03 ± 0.057
53 | ACAGCU | 2.06 ± 0.024 | 2.059 ± 0.004
54 | ACAGCC | 2.03 ± 0.0033 | 2.04 ± 0.045
55 | CCCAUA | 2.02 ± 0.036 | 2.03 ± 0.05
56 | CCCAUU | 2.09 ± 0.024 | 2.079 ± 0.01
57 | CCCAUG | 2.044 ± 0.0075 | 2 ± 0.033
58 | CCAUGC | 2.054 ± 0.015 | 2.05 ± 0.04
59 | CCAUGA | 1.981 ± 0.0035 | 2 ± 0.059
60 | CCAUGG | 1.986 ± 0.013 | 2.016 ± 0.015
61 | ACACUU | 1.996 ± 0.016 | 2.03 ± 0.027
62 | ACACUA | 2.017 ± 0.012 | 2.01 ± 0.043
63 | ACACUG | 1.968 ± 0.01 | 2.03 ± 0.044
64 | ACACUC | 2.05 ± 0.027 | 2.03 ± 0.031
65 | ACCAUU | 2.02 ± 0.03 | 2.044 ± 0.0061
66 | ACCAUA | 1.988 ± 0.0064 | 2.013 ± 0.019
67 | ACCAUG | 1.982 ± 0.012 | 2.016 ± 0.0077
68 | ACCAUC | 2.044 ± 0.011 | 2.02 ± 0.04
69 | UCAGCA | 2.032 ± 0.016 | 2.062 ± 0.02
70 | UCAGCC | 2.044 ± 0.0032 | 1.99 ± 0.039
71 | UCAGCU | 2.046 ± 0.011 | 2.032 ± 0.0099
72 | ACAUCG | 2.006 ± 0.014 | 2.07 ± 0.027

Row | Variant | normalized RNA/DNA level without ligand (log10) ((6R,S)-folinic acid [1]) | normalized RNA/DNA level with ligand (log10) ((6R,S)-folinic acid [2])
73 | ACAUCU | 2.024 ± 0.011 | 2.03 ± 0.037
74 | UCCCAC | 2.026 ± 0.012 | 2.02 ± 0.043
75 | UCCCAA | 1.981 ± 0.011 | 1.97 ± 0.024
76 | UCCCAG | 1.962 ± 0.014 | 2.04 ± 0.03
77 | UCCCAU | 2.003 ± 0.0031 | 1.9973 ± 0.0006
78 | GCACUC | 2.022 ± 0.0041 | 2.022 ± 0.0086
79 | GCACUA | 2.019 ± 0.018 | 2.01 ± 0.022
80 | GCACUG | 2 ± 0.024 | 2.02 ± 0.056
81 | GCACUU | 2.001 ± 0.017 | 2.01 ± 0.021
82 | ACAUGC | 2.014 ± 0.014 | 2.04 ± 0.07
83 | ACAUGU | 2.022 ± 0.0056 | 2.02 ± 0.023
84 | ACAUGA | 1.979 ± 0.01 | 2.034 ± 0.019
85 | UCCCCG | 1.997 ± 0.008 | 2.041 ± 0.019
86 | UCCCCA | 2.052 ± 0.0085 | 2.04 ± 0.033
87 | UCCCCC | 2.06 ± 0.033 | 2.063 ± 0.012
88 | GCCAGU | 2.056 ± 0.0089 | 2.049 ± 0.015
89 | ACCACA | 2.021 ± 0.0096 | 2.01 ± 0.021
90 | ACCACC | 2.087 ± 0.0062 | 2.06 ± 0.04
91 | ACCACU | 2.029 ± 0.0042 | 1.99 ± 0.066
92 | ACCACG | 2.023 ± 0.0076 | 2.061 ± 0.003
93 | CCAGGC | 2.094 ± 0.018 | 2.05 ± 0.026
94 | CCAGGG | 1.99 ± 0.021 | 2.038 ± 0.018
95 | CCAGGU | 2.026 ± 0.0082 | 2.05 ± 0.033
96 | CCAGGA | 1.993 ± 0.00019 | 1.98 ± 0.036

Row | Variant | normalized RNA/DNA level without ligand (log10) ((6R,S)-folinic acid [1]) | normalized RNA/DNA level with ligand (log10) ((6R,S)-folinic acid [2])
97 | GCCCCG | 2.041 ± 0.012 | 1.99 ± 0.034
98 | GCCCCC | 2.03 ± 0.032 | 2.04 ± 0.048
99 | GCCCCA | 2.031 ± 0.0049 | 2.01 ± 0.042
100 | UCACAA | 1.982 ± 0.017 | 1.98 ± 0.025
101 | UCACAG | 1.9 ± 0.0082 | 1.979 ± 0.012
102 | UCACAU | 1.986 ± 0.0076 | 2.02 ± 0.048
103 | UCACAC | 2.048 ± 0.015 | 2.023 ± 0.016
104 | ACACGU | 2.023 ± 0.013 | 2.03 ± 0.022
105 | ACACGC | 1.981 ± 0.015 | 1.99 ± 0.049
106 | ACACGG | 1.934 ± 0.013 | 2.02 ± 0.04
107 | UCAUGG | 1.947 ± 0.0059 | 2.03 ± 0.048
108 | UCAUGA | 2.01 ± 0.028 | 2.053 ± 0.019
109 | UCAUGU | 1.942 ± 0.0042 | 2.01 ± 0.039
110 | GCAGCC | 2 ± 0.024 | 2.02 ± 0.025
111 | GCAGCU | 2.03 ± 0.029 | 2.02 ± 0.045
112 | GCAGCA | 2.048 ± 0.018 | 2.06 ± 0.037
113 | GCACGG | 1.997 ± 0.016 | 2.006 ± 0.018
114 | GCACGA | 2.029 ± 0.005 | 2.03 ± 0.038
115 | GCACGU | 1.99 ± 0.02 | 2.01 ± 0.023
116 | GCACGC | 2.025 ± 0.0075 | 2.024 ± 0.02
